Test results from patent US20190292270A1 (UNIVERSITY OF TOKYO, published 2019).

Target: T1, mouse TLR9 (mouse, UniProt Q9EQU3 26-1032)
T1 construct: Endogenous TLR9 of mouse spleen cDCs (staining) and of BM-cDC lysate (immunoprecipitation); also called endogenous TLR9
T1 sequence: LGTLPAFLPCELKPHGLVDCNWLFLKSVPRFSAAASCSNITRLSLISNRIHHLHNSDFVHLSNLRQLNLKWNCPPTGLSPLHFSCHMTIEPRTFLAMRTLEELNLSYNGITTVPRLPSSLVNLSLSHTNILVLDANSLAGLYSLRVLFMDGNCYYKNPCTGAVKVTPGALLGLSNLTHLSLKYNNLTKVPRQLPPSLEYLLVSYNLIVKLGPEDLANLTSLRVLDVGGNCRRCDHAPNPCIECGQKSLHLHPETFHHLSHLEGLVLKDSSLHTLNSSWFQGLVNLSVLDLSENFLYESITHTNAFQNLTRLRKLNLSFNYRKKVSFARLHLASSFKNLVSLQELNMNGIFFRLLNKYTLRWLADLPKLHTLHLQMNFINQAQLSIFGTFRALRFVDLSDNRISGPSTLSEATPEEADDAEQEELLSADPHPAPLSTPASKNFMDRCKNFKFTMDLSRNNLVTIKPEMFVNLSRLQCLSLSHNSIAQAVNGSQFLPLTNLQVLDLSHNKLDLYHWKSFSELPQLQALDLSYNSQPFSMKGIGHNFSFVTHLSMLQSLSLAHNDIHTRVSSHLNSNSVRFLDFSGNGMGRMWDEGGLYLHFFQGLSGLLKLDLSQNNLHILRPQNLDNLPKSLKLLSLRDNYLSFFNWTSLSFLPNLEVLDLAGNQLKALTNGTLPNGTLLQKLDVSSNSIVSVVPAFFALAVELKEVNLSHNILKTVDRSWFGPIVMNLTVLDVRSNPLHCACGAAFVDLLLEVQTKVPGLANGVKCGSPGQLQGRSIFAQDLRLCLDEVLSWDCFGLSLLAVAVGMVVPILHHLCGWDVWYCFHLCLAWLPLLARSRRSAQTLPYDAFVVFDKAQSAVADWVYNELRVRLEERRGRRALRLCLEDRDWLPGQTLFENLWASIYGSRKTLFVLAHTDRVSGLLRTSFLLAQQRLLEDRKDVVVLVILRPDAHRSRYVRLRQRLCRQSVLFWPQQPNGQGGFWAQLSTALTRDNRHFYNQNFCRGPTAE
Assay: immunoprecipitation from BM-cDC lysate, Western blot; also staining of spleen cDCs
Description: The protein expression of TLR9 was analyzed by Western blot. BM-cDCs were washed twice with 1×PBS and recovered. The recovered cells were lysed for 30 minutes in an ice-cold buffer for lysis (1% Triton X 100, 20 mM Tris-HCl (pH 7.4), 150 mM NaCl, 1 mM CaCl₂, 1 mM MgCl₂, 10% glycerol, 1 mM DTT and Complete protease Inhibitor Cocktail (F. Hoffmann-La Roche, Ltd.)) and centrifuged at a high speed, followed by the recovery of the supernatant of the cell lysate.
The recovered cell lysate was added to N-hydroxy succinimide-activated Sepharose 4FF beads bound with the anti-TLR9 monoclonal antibody (NaR9), and the mixture was stirred at 4° C. for 2 hours. TLR9 was immunoprecipitated by this step. The beads thus stirred were washed three times with an ice-cold buffer for washing (0.1% Triton X 100, 20 mM Tris/HCl (pH 7.4), 150 mM NaCl, 1 mM CaCl₂), 1 mM MgCl2, 0.1% glycerol, and 1 mM DTT). To the washed beads, an SDS sample buffer (125 mM Tris/HCl [pH 6.8], 20% glycerol, 4% SDS, 10% 2-ME, and 0.005% bromophenol blue) was added, and the mixture was heated at 96° C. for 5 minutes for protein denaturation treatment. The sample thus prepared was subjected to polyacrylamide electrophoresis, and the protein was transferred to a PVDF membrane and Western-blotted. […]

B1: anti-mouse TLR9 monoclonal antibody NaR9 (antibody, IgG2a, V domains shown)
VH: QVHLQQSGPDLVKPGASVQMSCKTSDYTFTNYYLHWVRQRPGQGLEWIGWIYPGDGSTKYNDQFRGRTTLTADKSSSTAYMFLSSLTSEDSAIYFCAKSWDYFDYWGQGTTLTVSS
VL: DIQMTQSPSSLSASLGGKVTITCKASQDIDNYIAWYQHKPGKGPRLLIHYASTLQPGIPSRFSGSGSGRDYSLSISNLEPEDIATYYCLQYDDLYTFGGGTKLEIK
notes: Mouse hybridoma antibody, subclass IgG2a/kappa, purified from ascitic fluid; They may therefore cover only the variable regions, possibly with a leader; also called NaR9 antibody; anti-TLR9 monoclonal antibody (NaR9)
- binding result: binds
